From PMC5356841 (2016)

B1: 2B5 Fab (Fab, V domains shown)
VH: EVQLVESGGGLVQPGGSLRLSCAASGFNLSYSSMHWVRQAPGKGLEWVASIYPYSGYTYYADSVKGRFTISADTSKNTAYLQMNSLRAEDTAVYYCARIGVNAWAVKMSQRMLATRGSGWYVMDYWGQGTLVTVSS
VL: DIQMTQSPSSLSASVGDRVTITCRASQSVSSAVAWYQQKPGKAPKLLIYSASSLYSGVPSRFSGSRSGTDFTLTISSLQPEDFATYYCQQSSSYPYSPITFGQGTKVEIK
B2: 3E9 Fab (Fab, V domains shown)
VH: EVQLVESGGGLVQPGGSLRLSCAASGFNLYYSSMHWVRQAPGKGLEWVASIYPSYGSTYYADSVKGRFTISADTSKNTAYLQMNSLRAEDTAVYYCARNGRYPGFLKRAHKRLLNFKAYVMDYWGQGTLVTVSS
VL: DIQMTQSPSSLSASVGDRVTITCRASQSVSSAVAWYQQKPGKAPKLLIYSASSLYSGVPSRFSGSRSGTDFTLTISSLQPEDFATYYCQQGSWYLITFGQGTKVEIK

Biological target: individual catalytic domain of human MT1-MMP (MT1-CAT) (human, UniProt P50281 114-287, biotin (EZ-Link sulfo-NHS-LC-biotin, 1:20 enzyme-biotin molar ratio) in the Fab binding ELISA only; unlabelled in the competition ELISA and the cleavage assays)
Assay: ELISA

Binder	Kd [nM]
B1	21
B2	45
